The assay deals with recombinant human adenovirus type 5 (E1 region replaced by lacZ cDNA), whole virus particles (human adenovirus type 5) (UniProt P04133).

On to “human coagulation factor X (zymogen) (natural protein)”, for which the binding of the virus-hFX complex to heparan sulfate-coated plates (attached particles by real-time PCR), enhancement over virus alone; hFX at 0.008 and 0.05 mg/ml stood at 7.5 times.

The record behind these values is publication PMC3274534.
